Assay [1] concerns the target wild-type cytochrome bc1 complex from Paracoccus denitrificans (Paracoccus denitrificans) (UniProt P05417).
The target of assay [2] is His-tagged wild-type cytochrome bc1 complex from Paracoccus denitrificans (Paracoccus denitrificans) (UniProt P05417).

In the case of “horse heart cytochrome c (from UniProt P00004 1-105) (natural protein)”, in assay [1], the steady-state reduction of cytochrome c by bc1 complex with decylubiquinol, KM was 2.3 µM and the steady-state reduction of cytochrome c by bc1 complex with decylubiquinol, kCAT was 273 s⁻¹. Moreover, in assay [2], the steady-state reduction of cytochrome c by bc1 complex with decylubiquinol, KM was 3.4 µM and the steady-state reduction of cytochrome c by bc1 complex with decylubiquinol, kCAT was determined as 328 s⁻¹.

Values taken from article PMC3171513.
